# Test results from the supplement of paper PMC12764529.
# ± gives the half width of the 95% confidence interval.
# Tests used:
# [1] = folding stability dG unfold from trypsin proteolysis; higher = more stable
# In short: (§1)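 How resistant each design was to proteolysis was captured as K50, inferred by Bayesian fitting of sequencing counts. Unfolding free energy was then derived relative to a sequence-predicted unfolded-state K50 and a shared folded-state K50, per protease or combined. Digestion used trypsin and chymotrypsin at 11 threefold-diluted concentrations plus a no-protease condition, on mini-proteins under 80 residues without cysteine in a PA-tagged cDNA display construct. Designs were kept only when AlphaFold2 dimer inter-PAE was above 15.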
# [2] = folding stability dG unfold from chymotrypsin proteolysis; higher = more stable
# In short: as §1
# [3] = folding stability dG unfold (combined trypsin and chymotrypsin); higher = more stable
# In short: as §1
Sequence,folding stability dG unfold [1] [kcal/mol],folding stability dG unfold [2] [kcal/mol],folding stability dG unfold [3] [kcal/mol]
SAGITILFNSAEDAENFAEELAEDYPNMNVTIKIHDPEHGEPVEIPVKIPPPPPKPKRDPDNGNKKYEGSAG [r5_870_TrROS],-0.132 ± 0.043,0.506 ± 0.053,0.286 ± 0.13
SAGITLHPDARIILKNPSTGEKIELRSETIRRLIAEILGTDRPEEITAEQINAFALSLGFEEAEFEEPSAGG [r19_67_TrMRF],2.29 ± 0.031,3.312 ± 0.011,3.02 ± 0.045
SAGKDEKLVKVIVKFNDKTFEVVVKEEDLKKLVESGILKVVGKIPGKNIVAIKVEVPPPKGDPVGPTPVSAG [r5_868_TrMRF],2.08 ± 0.24,2.82 ± 0.14,2.5 ± 0.17
SAGKELVLRVRLYRPVPLEEPRVEEREVVVPRKEDEPIEKVVEELLEPDWVLEVEVFDEGKLIERYYTHSAG [r5_278_TrMRF],0.721 ± 0.075,1.36 ± 0.22,1.11 ± 0.2
SAGKIEITVKPDGTVIIKVTVEVDGKKLELTIEVPPEMTIEEIIEKLKELAEELGVEKVEVEIVPLPPSAGG [r19_31_TrROS_Hall],3.9 ± 0.85,2.9 ± 0.45,> 6
SAGKIEVKKNYVVIEIKVEGKELKLVIKVKTKEEQEKALELVKKLEEELKKEGLEVEVKVEVFKEGEEVSAG [r5_823_TrROS_Hall],2.2 ± 0.15,3 ± 0.16,2.8 ± 0.23
SAGKIKIEKENGEVKIEIEVPEEEIEKLKKLLEELKKKGFEVEKVEVKVEKKEDGTVKVTIKVKIKPKPSAG [r5_739_TrROS_Hall],1.91 ± 0.13,3.42 ± 0.41,2.99 ± 0.51
SAGKIKKIEVKEVTNENGEKYKKITIEVEKEGKKVEIIVNKNGEKFIKVEKNGKTITLPLDEALELLKKSAG [r5_157_TrROS_Hall],1.23 ± 0.088,1.19 ± 0.13,1.23 ± 0.3
SAGKIKPGQKIKIKITSIEKLKDGTIKIKAEIELEEKGYKITIEAEIKYDKKTKKLTIKVKIKIEPKPSAGG [r19_342_TrROS_Hall],3.26 ± 0.14,4.14 ± 0.18,3.88 ± 0.24
SAGKIKVYYDPKLGRIIEIPLPNGKRIRIYLPKNKLIIVAEDPEGNKAIPIEIETKIGDIIKIIKEIAGSAG [r5_820_TrMRF],2.9 ± 0.075,3.57 ± 0.11,3.16 ± 0.18
SAGKINIPPDTDITVKISTEKKPNPPSPEEEEYVGVSYIKVKKNPDGSIEVEEEKFEIISKEEAEKMGLSAG [r5_340_JUSTAS],0.16 ± 0.13,0.177 ± 0.31,0.23 ± 0.28
SAGKISSIDISPFKLPDGSYPYLLRVSFPDLGTEVDFIFPAKPSDAINFAKELRKSLPNIPLTFSNISSAGG [r19_317_TrMRF],1.94 ± 0.05,1.89 ± 0.11,1.87 ± 0.11
SAGKKKFITIVIPIEKKEKLKKAVEELKKKFNAKELAVIPNPEKNEIIEVVVKETKDAIIKIVIIAKESAGG [r19_262_TrMRF],1.68 ± 0.036,1.26 ± 0.029,1.45 ± 0.089
SAGKKKIKIKLENGETKTLEIKPGETVEITFPNGLKATITKVKDGKIEIKVKEVYVKDKNGKWKKLKDLSAG [r5_417_TrROS_Hall],1.72 ± 0.066,2.6 ± 0.17,2.29 ± 0.29
SAGKKKKIKIKVTIVVPVKTKEDVELMKELAEKFAPELGKETAKKLGLPPEVEEIEVDVNILIVSPEELSAG [r5_436_TrMRF],1.48 ± 0.14,1.89 ± 0.13,1.88 ± 0.2
SAGKKKKKKLKITIEITYNKETNTVTIKITVDGKEITVEVKAKSKEEALLNALKELEKKLNIKIKEVKLSAG [r5_251_TrROS_Hall],1.36 ± 0.13,2.1 ± 0.18,2.27 ± 0.36

Sequence,folding stability dG unfold [1] [kcal/mol],folding stability dG unfold [2] [kcal/mol],folding stability dG unfold [3] [kcal/mol]
SAGKKKKKVKKKTVKLTITVKLKPGMTEEEALEKVKELAKALLPPGAKIKEVKFDKETKTVTVEIELTSAGG [r19_81_TrROS_Hall],2.15 ± 0.054,2 ± 0.23,2.25 ± 0.19
SAGKKKTVTIYLRVETPEEARKLVEELAKKLGAEVTSVEIEKVDGKYYVTVTIKVDGKEIKIVIEFEPSAGG [r19_262_TrROS_Hall],2.04 ± 0.045,3.03 ± 0.031,2.67 ± 0.087
SAGKKVTILIVVPETEEEAKKLAEELAKELAEKTGLEKVEVKVVPKGMTLEQLKELAKENNVDLVILVSAGG [r19_89_TrROS_Hall],3.24 ± 0.21,3.09 ± 0.15,3.17 ± 0.24
SAGKKYKVKKKITLTLEDGSKITIEIVENEDGTVEIKITDSNGKTRTITIPKEKLENMSLEELLKLLKSAGG [r19_47_TrROS_Hall],1.76 ± 0.1,1.73 ± 0.13,1.92 ± 0.22
SAGKLVLKPGETVEIGDMTIHFHPDGRVSATFPDGRSAAIRVTVDTDTDVVGFEFVEEHPDVGHTDAPGSAG [r5_33_TrMRF],1.74 ± 0.1,1.12 ± 0.057,1.47 ± 0.11
SAGKMVKVEIVIDVPPEEITEEELKAILEEEAEEVEITFDEETGKITITVTVSEEEAEKLREALKELGASAG [r5_378_TrROS_Hall],1.02 ± 0.13,1.04 ± 0.13,1.3 ± 0.26
SAGKPESFSIEAPPIAPPEFPLGGSYRTLPNGEVLVLITLPDGTVLVLPSLDELRELRESGLPIDISPSSAG [r5_42_TrMRF],0.959 ± 0.017,1.17 ± 0.045,1.07 ± 0.045
SAGKPGKTIKVTVPIPDSVKNAKIIVEYPNGKSKTITVPAGKNVTITFKVPGSSSVKVRVVLDDGSVIGSAG [r5_664_TrMRF],2.9 ± 0.075,2.45 ± 0.046,2.69 ± 0.054
SAGKPKVKVKKITVTITYDPETGTITIEATIEIDGKTIKLTITITLPEELRNLKPGDTITIEITIIIEPSAG [r5_714_TrROS_Hall],3.4 ± 0.17,2.86 ± 0.13,3.15 ± 0.12
SAGKPLPKLKTYEVDVPDNKKVKIEVYKLPDGTAIVKIKDDNGNESEIEIPLSLLENLSVEDLVKLAKSAGG [r19_47_TrMRF],0.77 ± 0.028,2.28 ± 0.047,1.9 ± 0.095
SAGKPRPVEIDFPMPPGFPNMPPEEMANMIARELDENGLKIEPKNMNPGEPYVRYTVEVNGKPILEITFSAG [r5_80_TrROS],0.762 ± 0.081,1.51 ± 0.12,1.14 ± 0.12
SAGKQEIKVEAVFPGDTLEEFMEFIREFLAEQGLKIEPTEFEIDKVQPMPGGPMIRVTAWIKIEPPDDSAGG [r19_325_TrROS],2.31 ± 0.11,2.95 ± 0.053,2.8 ± 0.22
SAGKTITVTSTHPDGRTATVTYTTLPDGSFKITSFTWEPWPDGTVTAKITTPDGTVITVNSIDDILKALSAG [r5_618_TrMRF],2.4 ± 0.1,3.52 ± 0.05,3.27 ± 0.099
SAGKTVEIKVTLKITRYEKLPDGSVKKEVKTLTITVTMSEEELNKEEIKNALKELLEKLPPDVKKIEITSAG [r5_849_TrROS_Hall],2.8 ± 0.17,4.63 ± 0.083,4.34 ± 0.22
SAGKVEIVVTYPDGSKAVIDSDNPLVFTITDPDGNSSTISGTGFDEALLKIVELLKEKTGKPVEKVEIKSAG [r5_119_TrMRF],0.377 ± 0.098,2.168 ± 0.021,1.76 ± 0.14
